Test results taken from patent US20110091994A1, “Methods for Screening Compounds for Treating and/or Preventing an Hepatitis C Virus Infection” (priority 2008, published 2011).

B1: NUP62 (protein, UniProt P37198 2-522, looked up)
Nuclear pore glycoprotein p62: SGFNFGGTGAPTGGFTFGTAKTATTTPATGFSFSTSGTGGFNFGAPFQPATSTPSTGLFSLATQTPATQTTGFTFGTATLASGGTGFSLGIGASKLNLSNTAATPAMANPSGFGLGSSNLTNAISSTVTSSQGTAPTGFVFGPSTTSVAPATTSGGFSFTGGSTAQPSGFNIGSAGNSAQPTAPATLPFTPATPAATTAGATQPAAPTPTATITSTGPSLFASIATAPTSSATTGLSLCTPVTTAGAPTAGTQGFSLKAPGAASGTSTTTSTAATATATTTSSSSTTGFALNLKPLAPAGIPSNTAAAVTAPPGPGAAAGAAASSAMTYAQLESLINKWSLELEDQERHFLQQATQVNAWDRTLIENGEKITSLHREVEKVKLDQKRLDQELDFILSQQKELEDLLSPLEELVKEQSGTIYLQHADEEREKTYKLAENIDAQLKRMAQDLKDIIEHLNTSGAPADTSDPLQQICKILNAHMDSLQWIDQNSALLQRKVEEVTKVCEGRRKEQERSFRITFD
B2: PCYT2 (protein, UniProt Q99447 1-389, looked up)
Ethanolamine-phosphate …: MIRNGRGAAGGAEQPGPGGRRAVRVWCDGCYDMVHYGHSNQLRQARAMGDYLIVGVHTDEEIAKHKGPPVFTQEERYKMVQAIKWVDEVVPAAPYVTTLETLDKYNCDFCVHGNDITLTVDGRDTYEEVKQAGRYRECKRTQGVSTTDLVGRMLLVTKAHHSSQEMSSEYREYADSFGKCPGGRNPWTGVSQFLQTSQKIIQFASGKEPQPGETVIYVAGAFDLFHIGHVDFLEKVHRLAERPYIIAGLHFDQEVNHYKGKNYPIMNLHERTLSVLACRYVSEVVIGAPYAVTAELLSHFKVDLVCHGKTEIIPDRDGSDPYQEPKRRGIFRQIDSGSNLTTDLIVQRIITNRLEYEARNQKKEAKELAFLEAARQQAAQPLGERDGDF
B3: PDLIM5 (protein, UniProt Q96HC4 2-596, looked up)
PDZ and LIM domain protein 5: SNYSVSLVGPAPWGFRLQGGKDFNMPLTISSLKDGGKAAQANVRIGDVVLSIDGINAQGMTHLEAQNKIKGCTGSLNMTLQRASAAPKPEPVPVQKGEPKEVVKPVPITSPAVSKVTSTNNMAYNKAPRPFGSVSSPKVTSIPSPSSAFTPAHATTSSHASPSPVAAVTPPLFAASGLHANANLSADQSPSALSAGKTAVNVPRQPTVTSVCSETSQELAEGQRRGSQGDSKQQNGPPRKHIVERYTEFYHVPTHSDASKKRLIEDTEDWRPRTGTTQSRSFRILAQITGTEHLKESEADNTKKANNSQEPSPQLASSVASTRSMPESLDSPTSGRPGVTSLTAAAAFKPVGSTGVIKSPSWQRPNQGVPSTGRISNSATYSGSVAPANSALGQTQPSDQDTLVQRAEHIPAGKRTPMCAHCNQVIRGPFLVALGKSWHPEEFNCAHCKNTMAYIGFVEEKGALYCELCYEKFFAPECGRCQRKILGEVISALKQTWHVSCFVCVACGKPIRNNVFHLEDGEPYCETDYYALFGTICHGCEFPIEAGDMFLEALGYTWHDTCFVCSVCCESLEGQTFFSKKDKPLCKKHAHSVNF
B4: PICK1 (protein, UniProt Q9NRD5 1-415, looked up)
PRKCA-binding protein: MFADLDYDIEEDKLGIPTVPGKVTLQKDAQNLIGISIGGGAQYCPCLYIVQVFDNTPAALDGTVAAGDEITGVNGRSIKGKTKVEVAKMIQEVKGEVTIHYNKLQADPKQGMSLDIVLKKVKHRLVENMSSGTADALGLSRAILCNDGLVKRLEELERTAELYKGMTEHTKNLLRAFYELSQTHRAFGDVFSVIGVREPQPAASEAFVKFADAHRSIEKFGIRLLKTIKPMLTDLNTYLNKAIPDTRLTIKKYLDVKFEYLSYCLKVKEMDDEEYSCIALGEPLYRVSTGNYEYRLILRCRQEARARFSQMRKDVLEKMELLDQKHVQDIVFQLQRLVSTMSKYYNDCYAVLRDADVFPIEVDLAHTTLAYGLNQEEFTDGEEEEEEEDTAAGEPSRDTRGAAGPLDKGGSWCDS

test system: HCV ORFs (Gal4-DB fusions); experiment: not given; assay type: binding, HCV genotype 1b, isolate con1; conditions: human protein listed by gene symbol; the value names the HCV protein it interacts with
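Throughout, for IMAP Y2H IMAP1 (number of IST): yeast two-hybrid screens using HCV genotype 1b proteins fused to Gal4-DB as baits against prey cDNA libraries from human spleen and foetal brain, IMAP1 via transformation and IMAP2 via mating.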
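Throughout, for Interaction with viral protein: yeast two-hybrid screens using HCV genotype 1b proteins fused to Gal4-DB as baits against prey cDNA libraries from human spleen and foetal brain, IMAP1 via transformation and IMAP2 via mating.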

Molecule	Interaction with viral protein
B1	NS3
B2	NS3
B3	NS3
B4	NS3

biological target: T1, HCV ORFs (Gal4-DB fusions) (Hepatitis C virus genotype 1b, UniProt Q9WMX2); experiment: not given; assay type: binding, HCV genotype 1b, isolate con1; conditions: HCV protein NS3 as bait; human protein as prey
T1 construct: expressed in transfected cells; host or cells: Saccharomyces cerevisiae MAV203 (IMAP1) / AH109 (IMAP2)
T1 sequence (Q9WMX2 1027-1657): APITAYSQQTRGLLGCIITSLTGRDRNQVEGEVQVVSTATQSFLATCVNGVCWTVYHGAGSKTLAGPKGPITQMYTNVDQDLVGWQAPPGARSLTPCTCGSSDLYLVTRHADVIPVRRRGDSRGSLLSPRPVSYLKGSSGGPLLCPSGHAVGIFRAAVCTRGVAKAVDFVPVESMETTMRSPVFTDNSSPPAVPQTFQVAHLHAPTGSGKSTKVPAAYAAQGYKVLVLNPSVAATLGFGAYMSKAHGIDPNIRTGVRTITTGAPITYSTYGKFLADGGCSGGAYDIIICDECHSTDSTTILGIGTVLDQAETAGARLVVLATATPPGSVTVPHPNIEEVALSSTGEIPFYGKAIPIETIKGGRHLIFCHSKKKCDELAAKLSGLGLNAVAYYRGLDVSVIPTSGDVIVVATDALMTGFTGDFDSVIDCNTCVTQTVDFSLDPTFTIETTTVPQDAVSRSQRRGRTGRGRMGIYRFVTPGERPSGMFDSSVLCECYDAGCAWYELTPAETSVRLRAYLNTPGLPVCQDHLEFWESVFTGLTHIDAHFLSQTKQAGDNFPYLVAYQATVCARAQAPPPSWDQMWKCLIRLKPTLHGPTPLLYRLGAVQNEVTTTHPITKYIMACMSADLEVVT

Molecule	IMAP Y2H IMAP1 (number of IST)
B1	3
B2	1
B3	1
B4	3

biological target: T2, HCV proteins (Hepatitis C virus genotype 1b, UniProt Q9WMX2); experiment: Validation by Y2H pairwise matrices; assay type: binding; conditions: validation of interaction with HCV protein NS3;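 note: yeast two-hybrid pairwise tests of interactions first found in Y2H screens of HCV bait proteins against human cDNA libraries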
T2 construct: expressed in transfected cells
T2 sequence (Q9WMX2 1027-1657): as above

Molecule	Y2H matrices
B1	+
B2	+
B3	+
B4	+
